Experimental data reported in patent US20250262210A1 (TRUSTEES OF COLUMBIA UNIVERSITY IN THE CITY OF NEW YORK, published 2025).

Assays:
[1] = biological target: T1, ZCCHC6 (human, UniProt Q5VYS8 1-1495, limits assumed); test: IP/MS, LZTR1 R810W-FLAG, U87
T1 sequence (looked up): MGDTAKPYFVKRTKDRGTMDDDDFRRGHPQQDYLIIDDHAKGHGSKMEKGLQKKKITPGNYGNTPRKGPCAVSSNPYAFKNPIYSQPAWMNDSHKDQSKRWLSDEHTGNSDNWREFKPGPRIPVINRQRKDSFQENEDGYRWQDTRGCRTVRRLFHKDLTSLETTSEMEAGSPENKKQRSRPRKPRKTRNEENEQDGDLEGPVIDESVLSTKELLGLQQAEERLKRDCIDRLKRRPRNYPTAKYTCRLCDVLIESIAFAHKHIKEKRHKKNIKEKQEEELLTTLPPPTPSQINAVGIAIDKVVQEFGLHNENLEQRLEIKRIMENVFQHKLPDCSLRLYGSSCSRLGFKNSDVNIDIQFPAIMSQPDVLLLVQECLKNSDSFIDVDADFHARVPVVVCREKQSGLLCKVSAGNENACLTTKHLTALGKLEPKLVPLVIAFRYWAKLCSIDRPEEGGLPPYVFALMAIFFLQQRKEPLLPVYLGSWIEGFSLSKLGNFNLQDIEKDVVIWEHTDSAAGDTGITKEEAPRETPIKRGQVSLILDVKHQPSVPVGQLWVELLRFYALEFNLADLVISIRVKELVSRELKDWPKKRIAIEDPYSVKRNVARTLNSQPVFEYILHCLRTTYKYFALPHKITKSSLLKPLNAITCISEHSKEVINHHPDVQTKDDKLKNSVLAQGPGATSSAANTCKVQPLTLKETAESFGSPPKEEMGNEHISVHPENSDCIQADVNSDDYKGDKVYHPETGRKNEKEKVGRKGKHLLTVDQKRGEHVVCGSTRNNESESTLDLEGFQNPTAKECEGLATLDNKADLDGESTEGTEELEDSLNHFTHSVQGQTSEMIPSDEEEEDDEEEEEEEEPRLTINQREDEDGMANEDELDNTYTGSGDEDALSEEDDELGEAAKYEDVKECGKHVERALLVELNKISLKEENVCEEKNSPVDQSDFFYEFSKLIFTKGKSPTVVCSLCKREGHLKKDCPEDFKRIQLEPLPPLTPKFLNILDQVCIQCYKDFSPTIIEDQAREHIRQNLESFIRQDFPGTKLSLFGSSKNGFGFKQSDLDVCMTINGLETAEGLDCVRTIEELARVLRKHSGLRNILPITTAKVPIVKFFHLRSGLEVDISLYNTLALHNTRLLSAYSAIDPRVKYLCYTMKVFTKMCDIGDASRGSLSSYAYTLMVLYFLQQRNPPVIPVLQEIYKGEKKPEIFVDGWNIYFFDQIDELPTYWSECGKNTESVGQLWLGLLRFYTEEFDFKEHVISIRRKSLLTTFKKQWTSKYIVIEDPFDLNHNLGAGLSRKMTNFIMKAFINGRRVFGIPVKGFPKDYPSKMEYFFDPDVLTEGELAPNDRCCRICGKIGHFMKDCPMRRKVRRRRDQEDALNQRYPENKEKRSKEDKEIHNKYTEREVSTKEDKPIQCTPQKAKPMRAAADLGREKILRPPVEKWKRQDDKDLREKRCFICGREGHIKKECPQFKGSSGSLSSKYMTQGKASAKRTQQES
Outline: (§1)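 Extracted peptides in 3% acetonitrile/0.1% formic acid ran on a 50 cm C18 column into an Orbitrap Fusion, with MaxQuant identification and spectral counting.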

[2] = biological target: KDM5C (human, UniProt P41229 1-1560, limits assumed); test: IP/MS, LZTR1 R810W-FLAG, U87
Sequence of KDM5C (P41229 whole entry): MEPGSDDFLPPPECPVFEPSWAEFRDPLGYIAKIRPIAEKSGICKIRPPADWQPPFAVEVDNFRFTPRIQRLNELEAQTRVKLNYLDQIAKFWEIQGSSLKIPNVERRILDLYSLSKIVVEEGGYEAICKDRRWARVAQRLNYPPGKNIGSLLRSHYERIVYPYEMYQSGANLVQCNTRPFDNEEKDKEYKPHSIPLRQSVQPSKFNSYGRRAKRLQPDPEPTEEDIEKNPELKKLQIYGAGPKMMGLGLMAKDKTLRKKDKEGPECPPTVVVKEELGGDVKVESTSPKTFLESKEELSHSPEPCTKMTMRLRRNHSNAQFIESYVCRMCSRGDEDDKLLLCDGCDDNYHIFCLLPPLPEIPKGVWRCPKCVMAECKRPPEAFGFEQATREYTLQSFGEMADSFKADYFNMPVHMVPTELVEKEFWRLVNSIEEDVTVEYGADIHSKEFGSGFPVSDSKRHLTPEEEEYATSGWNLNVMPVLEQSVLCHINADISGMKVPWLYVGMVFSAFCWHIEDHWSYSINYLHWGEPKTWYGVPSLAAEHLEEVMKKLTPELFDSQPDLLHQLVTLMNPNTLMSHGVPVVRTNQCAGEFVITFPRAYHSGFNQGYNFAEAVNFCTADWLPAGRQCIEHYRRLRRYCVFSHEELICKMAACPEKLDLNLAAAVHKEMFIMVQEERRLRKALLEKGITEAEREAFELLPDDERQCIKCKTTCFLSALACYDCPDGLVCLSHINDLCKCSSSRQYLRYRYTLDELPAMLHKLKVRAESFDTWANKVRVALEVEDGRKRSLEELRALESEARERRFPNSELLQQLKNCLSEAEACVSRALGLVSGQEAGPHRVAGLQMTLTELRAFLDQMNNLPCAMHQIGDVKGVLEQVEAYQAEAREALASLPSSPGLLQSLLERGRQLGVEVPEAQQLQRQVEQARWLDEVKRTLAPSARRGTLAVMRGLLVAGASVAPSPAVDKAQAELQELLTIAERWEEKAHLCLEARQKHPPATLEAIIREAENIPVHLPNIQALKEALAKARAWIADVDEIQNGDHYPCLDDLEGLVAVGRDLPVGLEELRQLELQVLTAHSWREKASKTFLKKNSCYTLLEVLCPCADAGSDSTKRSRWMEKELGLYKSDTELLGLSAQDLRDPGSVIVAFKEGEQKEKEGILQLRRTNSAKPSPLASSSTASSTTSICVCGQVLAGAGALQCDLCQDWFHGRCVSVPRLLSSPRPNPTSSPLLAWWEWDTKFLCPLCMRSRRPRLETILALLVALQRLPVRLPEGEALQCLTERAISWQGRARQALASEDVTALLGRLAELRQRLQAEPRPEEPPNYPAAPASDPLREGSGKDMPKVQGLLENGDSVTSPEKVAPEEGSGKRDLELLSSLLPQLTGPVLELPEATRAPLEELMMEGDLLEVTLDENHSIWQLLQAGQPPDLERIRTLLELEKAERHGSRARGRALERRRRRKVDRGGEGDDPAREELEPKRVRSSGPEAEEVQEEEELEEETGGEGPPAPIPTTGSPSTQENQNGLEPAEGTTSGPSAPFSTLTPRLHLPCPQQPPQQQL
Outline: as §1

B1: LZTR1 R810W-FLAG (other, human, UniProt Q8N653 1-840, looked up)
chain: MAGPGSTGGQIGAAALAGGARSKVAPSVDFDHSCSDSVEYLTLNFGPFETVHRWRRLPPCDEFVGARRSKHTVVAYKDAIYVFGGDNGKTMLNDLLRFDVKDCSWCRAFTTGTPPAPRYHHSAVVYGSSMFVFGGYTGDIYSNSNLKNKNDLFEYKFATGQWTEWKIEGRLPVARSAHGATVYSDKLWIFAGYDGNARLNDMWTIGLQDRELTCWEEVAQSGEIPPSCCNFPVAVCRDKMFVFSGQSGAKITNNLFQFEFKDKTWTRIPTEHLLRGSPPPPQRRYGHTMVAFDRHLYVFGGAADNTLPNELHCYDVDFQTWEVVQPSSDSEVGGAEVPERACASEEVPTLTYEERVGFKKSRDVFGLDFGTTSAKQPTQPASELPSGRLFHAAAVISDAMYIFGGTVDNNIRSGEMYRFQFSCYPKCTLHEDYGRLWESRQFCDVEFVLGEKEECVQGHVAIVTARSRWLRRKITQARERLAQKLEQEAAPVPREAPGVAAGGARPPLLHVAIREAEARPFEVLMQFLYTDKIKYPRKGHVEDVLLIMDVYKLALSFQLCRLEQLCRQYIEASVDLQNVLVVCESAARLQLSQLKEHCLNFVVKESHFNQVIMMKEFERLSSPLIVEIVRRKQQPPPRTPLDQPVDIGTSLIQDMKAYLEGAGAEFCDITLLLDGHPRPAHKAILAARSSYFEAMFRSFMPEDGQVNISIGEMVPSRQAFESMLRYIYYGEVNMPPEDSLYLFAAPYYYGFYNNRLQAYCKQNLEMNVTVQNVLQILEAADKTQALDMKRHCLHIIVHQFTKVSKLPTLWSLSQQLLLDIIDSLASHISDKQCAELGADI
notes: Stably expressed in U87 cells by lentivirus; also called LZTR1-FLAG-R810W; LZTR1 RW; not shown: FLAG tag
B1: binds [1]; binds [2].
